Measurements published in patent US20230048390A1 (Xencor, published 2023).

Tests used:
human CD20 = molecular target: T1, human CD20 (human, UniProt P11836 1-297); assay: cell-based or functional assay
T1 sequence (looked up): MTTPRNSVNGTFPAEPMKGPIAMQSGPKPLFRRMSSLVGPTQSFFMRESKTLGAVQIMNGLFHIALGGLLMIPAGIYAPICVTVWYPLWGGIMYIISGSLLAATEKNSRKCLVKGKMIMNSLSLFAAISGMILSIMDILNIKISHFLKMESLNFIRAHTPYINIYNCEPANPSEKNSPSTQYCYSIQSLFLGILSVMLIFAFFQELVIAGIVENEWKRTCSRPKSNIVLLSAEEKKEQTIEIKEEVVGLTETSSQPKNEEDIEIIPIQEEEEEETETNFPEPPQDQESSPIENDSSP

mouse CD20 = molecular target: T2, mouse CD20 (mouse, UniProt P19437 1-291, limits assumed); assay: not described
T2 construct: Named only as mouse CD20
T2 sequence (looked up): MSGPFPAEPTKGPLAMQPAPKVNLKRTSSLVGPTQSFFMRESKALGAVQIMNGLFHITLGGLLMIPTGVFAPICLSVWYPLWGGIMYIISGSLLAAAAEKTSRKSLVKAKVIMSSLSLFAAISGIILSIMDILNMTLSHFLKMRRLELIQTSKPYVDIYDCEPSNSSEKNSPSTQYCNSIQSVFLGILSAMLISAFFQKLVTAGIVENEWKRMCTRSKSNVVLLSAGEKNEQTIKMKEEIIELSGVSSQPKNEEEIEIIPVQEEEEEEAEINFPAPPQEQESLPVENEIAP

EC50 of RTCC against Ramos cells with purified T cells from six healthy donors (human CD20): 0.0053 to 0.0143 µg/mL
binding result (mouse CD20): no binding
B1: XmAb®13676 (XENP13676 Anti-CD20 × Anti-CD3 Fab-scFv-Fc) (bispecific antibody)
heavy: QVQLVQSGAEVKKPGASVKVSCKASGYTFTSYNMHWVRQAPGQGLEWMGAIYPGNGDTSYNQKFQGRVTITADKSISTAYMELSSLRSEDTAVYYCARSTYYGGDWYFNVWGAGTLVTVSSASTKGPSVFPLAPSSKSTSGGTAALGCLVKDYFPEPVTVSWNSGALTSGVHTFPAVLQSSGLYSLSSVVTVPSSSLGTQTYICNVNHKPSDTKVDKKVEPKSCDKTHTCPPCPAPPVAGPSVFLFPPKPKDTLMISRTPEVTCVVVDVKHEDPEVKFNWYVDGVEVHNAKTKPREEEYNSTYRVVSVLTVLHQDWLNGKEYKCKVSNKALPAPIEKTISKAKGQPREPQVYTLPPSREEMTKNQVSLTCDVSGFYPSDIAVEWESDGQPENNYKTTPPVLDSDGSFFLYSKLTVDKSRWEQGDVFSCSVMHEALHNHYTQKSLSLSPGK
chain: not shown
light: QIVLTQSPSSLSASVGDRVTITCRASSSVSYIHWFQQKPGKSPKPLIYATSNLASGVPVRFSGSGSGTDYTLTISSLQPEDFATYYCQQWTSNPPTFGGGTKVEIKRTVAAPSVFIFPPSDEQLKSGTASVVCLLNNFYPREAKVQWKVDNALQSGNSQESVTEQDSKDSTYSLSSTLTLSKADYEKHKVYACEVTHQGLSSPVTKSFNRGEC
notes: The anti-CD20 Fv is derived from murine antibody C2B8; also called plamotamab
EC50 of Jeko-1 target cell killing (RTCC) in the presence of 3 µg/ml rituximab (human CD20): 0.051 µg/mL
EC50 of Jeko-1 target cell killing (RTCC) in the presence of 10 µg/ml rituximab (human CD20): 0.093 µg/mL
EC50 of Jeko-1 target cell killing (RTCC) in the presence of 30 µg/ml rituximab (human CD20): 0.162 µg/mL
EC50 of Jeko-1 target cell killing (RTCC) in the presence of 100 µg/ml rituximab (human CD20): 0.387 µg/mL
EC50 of Jeko-1 target cell killing (RTCC), no rituximab (human CD20): 0.024 µg/mL
